Measurements from patent US20220281976A1 (Alector, published 2022).

T1: mouse CD33 Fc fusion protein (mouse, UniProt Q63994 18-240, limits assumed)
T1 construct: also called mCD33-Fc
T1 sequence: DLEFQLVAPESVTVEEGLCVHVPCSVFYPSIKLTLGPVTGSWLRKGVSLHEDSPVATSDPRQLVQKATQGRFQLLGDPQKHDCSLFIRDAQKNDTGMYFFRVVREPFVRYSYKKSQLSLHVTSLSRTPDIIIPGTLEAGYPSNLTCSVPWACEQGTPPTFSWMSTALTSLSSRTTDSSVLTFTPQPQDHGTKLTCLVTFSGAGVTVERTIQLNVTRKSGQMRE


Legend:
human CD33 [1] = molecular target: T2, human CD33 (human, UniProt P20138 18-364); assay: cell-based or functional assay
T2 sequence (P20138 18-364): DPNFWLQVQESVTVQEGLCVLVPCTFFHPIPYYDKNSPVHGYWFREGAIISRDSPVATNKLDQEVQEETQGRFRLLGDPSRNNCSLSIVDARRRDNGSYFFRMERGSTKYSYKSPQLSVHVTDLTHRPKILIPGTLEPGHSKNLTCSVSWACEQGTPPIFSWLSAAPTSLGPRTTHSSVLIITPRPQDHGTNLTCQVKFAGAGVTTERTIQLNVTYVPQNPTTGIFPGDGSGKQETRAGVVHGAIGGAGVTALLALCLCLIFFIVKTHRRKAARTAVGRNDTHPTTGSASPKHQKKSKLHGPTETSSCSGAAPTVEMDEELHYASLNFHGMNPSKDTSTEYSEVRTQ

[2] = molecular target: T1, mouse CD33 Fc fusion protein; assay: ForteBio BLI or MSD-SET
human CD33 [3] = molecular target: T2, human CD33; assay: flow cytometry, human primary T cells;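 note: binding of anti-CD33 antibodies at 10 ug/ml to human primary T cells, 1 h on ice, detected with PE-labelled secondary antibody, read as flow cytometry MFI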
human CD33 [4] = molecular target: T2, human CD33; assay: flow cytometry, human primary monocytes; set-up: reference not given here;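 note: binding of anti-CD33 antibodies at 10 ug/ml to human primary monocytes, 1 h on ice, detected by PE-labelled secondary antibody, flow cytometry readout as mean fluorescence intensity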
human CD33 [5] = molecular target: T2, human CD33; assay: flow cytometry, human primary macrophages;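 note: binding of CD33 antibodies at 10 µg/ml to human primary macrophages, 1 h on ice, detected with PE-labelled secondary antibody by flow cytometry, reported as MFI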
Protocol: Initial characterization of CD33 antibodies involved determining their ability to bind CD33 expressed on a CHO cell line, on human primary monocytes, human primary macrophages, human primary dendritic cells, and on human primary T cells. Cells were harvested, plated at 10⁶/ml in a 96 well plate, and incubated in 100 ul PBS containing 2% FBS, 2 mM EDTA and 10 ug/ml Mab and Fc blocking reagent for 1 hour in ice. Cells were washed twice and incubated in 100 ul PBS containing 2% FBS, 2 mM EDTA and 5 ug/ml PE-conjugated secondary antibody for 30 minutes on ice. Cells were washed twice in cold PBS and analyze by flow cytometry on a BD FACS Canto. Data analysis and calculation of MFI values was performed with FlowJo (TreeStar) software version 10.0.7.

human CD33 [6] = molecular target: T2, human CD33; assay: flow cytometry, human primary dendritic cells;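 note: binding of anti-CD33 antibodies (10 ug/ml, 1 h on ice) to human primary dendritic cells, detected with a PE-labelled secondary antibody, reported as flow cytometry MFI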
[7] = molecular target: T3, human monomeric His tagged CD33 protein (human, UniProt P20138 18-259); assay: ForteBio BLI or MSD-SET, IgG, monomeric antigen;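 note: BLI: antibodies captured on AHQ sensors, 100 nM antigen association 5 min, dissociation 5 min, 1:1 fit. MSD-SET: antigen fixed at 50 pM, antibody titrated, quadratic fit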
T3 construct: also called hCD33-His
T3 sequence (P20138 18-259 limits assumed): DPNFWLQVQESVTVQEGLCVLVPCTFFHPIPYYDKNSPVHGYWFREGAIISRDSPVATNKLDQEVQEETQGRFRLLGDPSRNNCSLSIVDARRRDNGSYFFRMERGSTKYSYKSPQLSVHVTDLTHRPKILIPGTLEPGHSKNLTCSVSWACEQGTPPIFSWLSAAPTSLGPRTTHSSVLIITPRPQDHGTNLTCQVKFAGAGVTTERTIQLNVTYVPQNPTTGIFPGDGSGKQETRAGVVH
Protocol: (§1) The binding affinity of each anti-CD33 antibody was determined by measuring their KD by ForteBio or MSD-SET. […] Briefly, ForteBio affinity measurements were performed by loading IgGs on-line onto AHQ sensors. Sensors were equilibrated off-line in assay buffer for 30 min and then monitored on-line for 60 seconds for baseline establishment. Sensors with loaded IgGs were exposed to 100 nM antigen for 5 minutes, then transferred to assay buffer for 5 min for off-rate measurement. Kinetics were analyzed using the 1:1 binding model.
(§2) Solution equilibrium titrations (SET) were performed in PBS+0.1% IgG-Free BSA (PBSF) with antigen held constant at 50 pM and incubated with 3-to 5-fold serial dilutions of antibody starting at 10 nM. Antibodies (20 nM in PBS) were coated onto standard bind MSD-ECL plates overnight at 4° C. or at room temperature for 30 min. Plates were then blocked for 30 min with shaking at 700 rpm, followed by three washes with wash buffer (PBSF+0.05% Tween 20). SET samples were applied and incubated on the plates for 150s with shaking at 700 rpm followed by one wash. Antigen captured on a plate was detected with 250 ng/mL sulfotag-labeled streptavidin in PBSF by incubation on the plate for 3 min. The plates were washed three times with wash buffer and then read on the MSD Sector Imager 2400 instrument using 1× Read Buffer T with surfactant. The percent free antigen was plotted as a function of titrated antibody in Prism and fit to a quadratic equation to extract the KD. To improve throughput, liquid handling robots were used throughout MSD-SET experiments, including SET sample preparation.

[8] = molecular target: T4, human CD33 Fc fusion protein (human, UniProt P20138 18-259); assay: RBC adhesion to plate-bound CD33-Fc; antibody 0.5 ug/ml;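 note: Plate-coated CD33-Fc preincubated 1 h with antibody, then red blood cells added for 1 h at room temperature, adherent cells lysed and quantified via peroxidase activity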
T4 construct: also called hCD33-Fc; human CD33/Fc chimera (R&D Systems)
T4 sequence (P20138 18-259 limits assumed): as above
Protocol: (§3) Briefly, 5 ug/ml CD33-Fc was coated overnight at RT in 96 well Immunolon plates, then washed with PBS, blocked for one hour with binding buffer (PBS containing %0.25 BSA 1 mM CaCl₂). CD33 antibodies (0.5 ug/ml or 1.0 ug/ml) or Fabs (25 ug/ml) were bound for one hour at RT with gentle rocking. After removal of unbound antibody, red blood cells were added to each well at a concentration of 3.0×10⁶ cells per ml and incubated at RT for one hour. Unbound RBCs were then carefully washed off 3× with PBS, and water was added to each well for hypotonic lysis of bound RBCs. The plate was transferred to −80° C. for 10 minutes, followed by 37° C. for 15 minutes. Bound RBCs were detected by peroxidase activity, followed by 2N sulfuric acid to stop the reaction.

[9] = molecular target: T4, human CD33 Fc fusion protein; assay: RBC adhesion to plate-bound CD33-Fc; antibody 1.0 ug/ml;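 note: red blood cells adhering to plate-coated CD33-Fc after 1 h antibody pretreatment, then 1 h at room temperature, bound cells read as peroxidase activity after lysis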
Protocol: as §3

[10] = molecular target: T4, human CD33 Fc fusion protein; assay: ForteBio BLI or MSD-SET, IgG, avid;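 note: Anti-CD33 IgG affinity by BLI, IgG captured on AHQ sensors with antigen in solution and a one-to-one kinetic fit, or by MSD solution equilibrium titration with quadratic fit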
Protocol: as §1, §2

Binder	Percent CD33 Surface Expression, DC % CD33 (human CD33 [1]) [%]	Percent CD33 Surface Expression, Macrophage % CD33 (human CD33 [1]) [%]	Percent CD33 Surface Expression, Monocyte % CD33 (human CD33 [1]) [%]	binding result [2]	T cell MFI (human CD33 [3])	Monocyte MFI (human CD33 [4])	Macrophage MFI (human CD33 [5])	DC MFI (human CD33 [6])	Kd [7] [nM]	Percent RBC Binding to CD33 [8] [%]	Percent RBC Binding to CD33 [9] [%]	Kd [10] [nM]
C-42 (antibody, V domains shown, human IgG1) VH: QLQLQESGPGLVKPSETLSLTCTVSGGSISSSSYYWGWIRQPPGKGLEWIGSIYYSGSTYYNPSLKSRVTISVDTSKNQFSLKLSSVTAADTAVYYCAREPIYRRGMDVWGQGTTVTVSS VL: EIVLTQSPATLSLSPGERATLSCRASQSVSSYLAWYQQKPGQAPRLLIYDASNRATGIPARFSGSGSGTDFTLTISSLEPEDFAVYYCQQFSNYPTFGGGTKVEIK	27.8	52.2	44.9	no binding (tested: 100 nM)	269	74	617	1130	12.7	21.2	6.65	
C-66 (antibody, V domains shown, human IgG1) VH: QLQLQESGPGLVKPSETLSLTCTVSGGSISSSSYYWGWIRQPPGKGLEWIGSIYYSGSTYYNPSLKSRVTISVDTSKNQFSLKLSSVTAADTAVYYCAREVGYPYGMDVWGQGTTVTVSS VL: DIQLTQSPSSLSASVGDRVTITCQASQDISNFLNWYQQKPGKAPKLLIYDASNLETGVPSRFSGSGSGTDFTFTISSLQPEDIATYYCQQYSDLPTFGGGTKVEIK	77.4		59.9	no binding (tested: 100 nM)	772	107	729	892	100	44	19.3	
C-70 (antibody, V domains shown, human IgG1) VH: QVQLVESGGGVVQPGRSLRLSCAASGFTFSTYGMHWVRQAPGKGLEWVAVIWYDGSNKYYADSVKGRFTISRDNSKNTLYLQMNSLRAEDTAVYYCARGQHGTSRVDFDYWGQGTLVTVSS VL: not shown	47.5	68.8	53.9	no binding (tested: 100 nM)	192	84	652	938	32.2	23	7.46	
C-63 (antibody, V domains shown, human IgG1) VH: QVQLVQSGAEVKKPGSSVKVSCKASGGTFSSYAISWVRQAPGQGLEWMGSIIPIFGTANYAQKFQGRVTITADESTSTAYMELSSLRSEDTAVYYCARDLGGQYYGSHHYWGQGTLVTVSS VL: EIVLTQSPATLSVSPGERATLSCRASQSVGSNLAWYQQKPGQAPRLLIYGASTRATGIPARFSGSGSGTEFTLTISSLQSEDFAVYYCQQYNAWPLTFGGGTKVEIK	56.8		75.6	no binding (tested: 100 nM)	28.8	117	872	1200		17.1	5.66	4.01
C-13 (antibody, V domains shown, human IgG1) VH: EVQLVESGGGLVQPGGSLRLSCAASGFTFSSYWMSWVRQAPGKGLEWVANIKSDGSEKYYVDSVKGRFTISRDNAKNSLYLQMNSLRAEDTAVYYCARGPSYLASGAFDLWGRGTLVTVSS VL: EIVLTQSPATLSLSPGERATLSCRASQSVSSYLAWYQQKPGQAPRLLIYDASNRATGIPARFSGSGSGTDFTLTISSLEPEDFAVYYCQQAYVVPPRTFGGGTKVEIK	21.8	63.1	48	no binding (tested: 100 nM)	205	181	838	1740	9.97	41.3	15.3	
C-73 (antibody, V domains shown, human IgG1) VH: QVQLVESGGGVVQPGRSLRLSCAASGFTFSSYGMHWVRQAPGKGLEWVAVIWYDGSNKYYADSVKGRFTISRDNSKNTLYLQMNSLRAEDTAVYYCARGTNAYGTPRDFDLWGRGTLVTVSS VL: DIQMTQSPSSLSASVGDRVTITCRASQSISSYLNWYQQKPGKAPKLLIYAASSLQSGVPSRFSGSGSGTDFTLTISSLQPEDFATYYCQQLSDTPITFGGGTKVEIK	22.9	55.9	24.9	no binding (tested: 100 nM)	210	94	573	1050	23.7	29.8	13.7	
C-83 (antibody, V domains shown, human IgG1) VH: not shown VL: DIQLTQSPSSVSASVGDRVTITCRASQGISSWLAWYQQKPGKAPKLLIYAASSLQSGVPSRFSGSGSGTDFTLTISSLQPEDFATYYCQQAYALPPTFGGGTKVEIK	79.6		87.8	no binding (tested: 100 nM)	80.6	646	409	70	59.3	98.7	108	
C-18 (antibody, V domains shown, human IgG1) VH: not shown VL: DIQMTQSPSSVSASVGDRVTITCRASQGISSWLAWYQQKPGKAPKLLIYAASSLQSGVPSRFSGSGSGTDFTLTISSLQPEDFATYYCQQANYHPLTFGGGTKVEIK	80		84.8	no binding (tested: 100 nM)	43.4	189	981	1190	16.1	111	119	
C-19 (antibody, V domains shown, human IgG1) VH: QLQLQESGPGLVKPSETLSLTCTVSGGSISSSSYAWGWIRQPPGKGLEWIGSIYYSGSTYYNPSLKSRVTISVDTSKNQFSLKLSSVTAADTAVYYCARVGYTRPYGMDVWGQGTTVTVSS VL: DIQMTQSPSSVSASVGDRVTITCRASQGISSWLAWYQQKPGKAPKLLIYAASSLQSGVPSRFSGSGSGTDFTLTISSLQPEDFATYYCQQINAHPTFGGGTKVEIK	11.6	58.7	28.2	no binding (tested: 100 nM)	470	182	887	1700	1.82	19.5	14.3	
C-35 (antibody, V domains shown, human IgG1) VH: QLQLQESGPGLVKPSETLSLTCTVSGGSISSSSYAWGWIRQPPGKGLEWIGNIYYSGSTYYNPSLKSRVTISVDTSKNQFSLKLSSVTAADTAVYYCARAGYRSPSGFDYWGQGTLVTVSS VL: DIQMTQSPSSVSASVGDRVTITCRASQGISSWLAWYQQKPGKAPKLLIYAASNLQSGVPSRFSGSGSGTDFTLTISSLQPEDFATYYCQQGNAHPTFGGGTKVEIK	18.7	51.2	31.9	no binding (tested: 100 nM)	186	160	920	1320	4.26	16.6	7.18	
C-36 (antibody, V domains shown, human IgG1) VH: EVQLVESGGGLVQPGGSLRLSCAASGFTFSSYWMSWVRQAPGKGLEWVANIKQDGSEKYYVDSVKGRFTISRDNAKNSLYLQMNSLRAEDTAVYYCARDGQYYPAYGMDVWGQGTTVTVSS VL: EIVMTQSPATLSVSPGERATLSCRASQSVSSNLAWYQQKPGQAPRLLIYGASTRATGIPARFSGSGSGTEFTLTISSLQSEDFAVYYCQQYFDLPTFGGGTKVEIK	21.2	36.3	46.6	no binding (tested: 100 nM)	228	144	853	1160	2.35	13.4	16.1	
